Data on two molecules can be found in paper PMC5680108 (Cellular microbiology, 2017).

Like-named read-outs stand apart in the source and are kept apart here.

Common to all, as to experiment: ELISA
The target of experiment [1] is complement component C4b, human (human) (UniProt P0C0L4).
Experiment [2] addresses T1, complement component C4b, human (human, UniProt P0C0L4 20-675; P0C0L4 757-1446; P0C0L4 1454-1744).
The target of experiment [3] is T1, complement component C4b, human. This is another data set of the same source.

T1 sequence (P0C0L4 20-675, chain 1 of 3): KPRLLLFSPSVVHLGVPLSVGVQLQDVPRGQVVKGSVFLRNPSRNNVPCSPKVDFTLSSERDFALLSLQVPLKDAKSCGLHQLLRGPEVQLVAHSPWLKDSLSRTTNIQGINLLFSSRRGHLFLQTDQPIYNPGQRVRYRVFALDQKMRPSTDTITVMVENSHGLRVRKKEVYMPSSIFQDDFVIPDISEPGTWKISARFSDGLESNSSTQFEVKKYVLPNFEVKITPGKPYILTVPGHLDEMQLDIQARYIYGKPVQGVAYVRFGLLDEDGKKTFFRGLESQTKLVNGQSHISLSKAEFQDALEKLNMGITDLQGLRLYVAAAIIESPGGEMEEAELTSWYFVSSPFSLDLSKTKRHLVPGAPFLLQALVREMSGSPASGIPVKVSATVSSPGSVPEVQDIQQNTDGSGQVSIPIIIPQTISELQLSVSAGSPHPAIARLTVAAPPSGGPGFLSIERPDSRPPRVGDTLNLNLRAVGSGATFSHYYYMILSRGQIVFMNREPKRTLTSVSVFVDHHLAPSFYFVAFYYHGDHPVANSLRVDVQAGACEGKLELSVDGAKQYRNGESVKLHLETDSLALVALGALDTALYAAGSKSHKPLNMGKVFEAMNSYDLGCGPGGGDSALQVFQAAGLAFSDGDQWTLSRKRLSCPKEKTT
T1 sequence (P0C0L4 757-1446, chain 2 of 3): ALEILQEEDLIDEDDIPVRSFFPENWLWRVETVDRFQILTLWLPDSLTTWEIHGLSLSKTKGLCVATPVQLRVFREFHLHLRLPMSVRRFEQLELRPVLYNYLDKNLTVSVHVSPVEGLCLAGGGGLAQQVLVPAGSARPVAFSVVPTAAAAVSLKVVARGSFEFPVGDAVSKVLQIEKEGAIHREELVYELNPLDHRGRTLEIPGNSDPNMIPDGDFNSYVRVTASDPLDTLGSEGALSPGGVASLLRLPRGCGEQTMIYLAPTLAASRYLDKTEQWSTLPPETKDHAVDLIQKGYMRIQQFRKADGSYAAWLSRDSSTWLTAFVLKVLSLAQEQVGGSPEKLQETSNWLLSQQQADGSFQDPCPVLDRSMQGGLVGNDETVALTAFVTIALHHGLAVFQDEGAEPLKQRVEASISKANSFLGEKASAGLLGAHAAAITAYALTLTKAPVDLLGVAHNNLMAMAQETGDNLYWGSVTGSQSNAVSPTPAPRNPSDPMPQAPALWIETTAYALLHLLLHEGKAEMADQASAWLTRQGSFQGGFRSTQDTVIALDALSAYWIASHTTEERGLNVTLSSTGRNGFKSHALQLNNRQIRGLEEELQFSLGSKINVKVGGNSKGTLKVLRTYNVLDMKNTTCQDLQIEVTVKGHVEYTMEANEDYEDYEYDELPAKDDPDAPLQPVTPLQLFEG
T1 sequence (P0C0L4 1454-1744, chain 3 of 3): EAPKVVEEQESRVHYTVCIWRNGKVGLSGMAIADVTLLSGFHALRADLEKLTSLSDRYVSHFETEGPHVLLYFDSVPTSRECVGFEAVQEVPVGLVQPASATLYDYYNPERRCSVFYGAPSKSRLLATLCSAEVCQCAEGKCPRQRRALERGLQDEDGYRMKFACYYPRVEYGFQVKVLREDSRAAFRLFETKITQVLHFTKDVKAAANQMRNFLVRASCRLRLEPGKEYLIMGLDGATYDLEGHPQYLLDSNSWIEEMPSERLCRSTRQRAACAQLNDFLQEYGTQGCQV
Chain of complement component C4b, human (human) (P0C0L4 20-675, chain 1 of 3): as the sequence (P0C0L4 20-675, chain 1 of 3) above
Chain of complement component C4b, human (human) (P0C0L4 757-1446, chain 2 of 3): as the sequence (P0C0L4 757-1446, chain 2 of 3) above
Chain of complement component C4b, human (human) (P0C0L4 1454-1744, chain 3 of 3): as the sequence (P0C0L4 1454-1744, chain 3 of 3) above

In experiment [1], “GST-tagged OspC from B. burgdorferi strain N40 clone D10/E9 (natural protein)” came in with a Kd of 233 nM.

B1: GST-OspCB31, GST fused to OspC from B. burgdorferi strain B31-A3 (natural protein)
chain: CNNSGKDGNTSANSADESVKGPNLTEISKKITDSNAVLLAVKEVEALLSSIDEIAAKAIGKKIHQNNGLDTENNHNGSLLAGAYAISTLIKQKLDGLKNEGLKEKIDAAKKCSETFTNKLKEKHTDLGKEGVTDADAKEAILKTNGTKTKGAEELGKLFESVEVLSKAAKEMLANSVKELTSPVVAESPKKP
B1: the Kd is approximately 414 nM in experiment [2] and 476 nM in experiment [3].
